doi:10.1101/2020.01.06.896332 (bioRxiv, 2020)
Several values for one entry are separate records, joined by “and”; a condition that tells them apart may be missing. Equal values may be shown once.

Target: the molecule itself
Assay: SEC

B1: human diacylglycerol O-acyltransferase-1 (enzyme, UniProt O75907 1-488, looked up)
chain: MGDRGSSRRRRTGSRPSSHGGGGPAAAEEEVRDAAAGPDVGAAGDAPAPAPNKDGDAGVGSGHWELRCHRLQDSLFSSDSGFSNYRGILNWCVVMLILSNARLFLENLIKYGILVDPIQVVSLFLKDPYSWPAPCLVIAANVFAVAAFQVEKRLAVGALTEQAGLLLHVANLATILCFPAAVVLLVESITPVGSLLALMAHTILFLKLFSYRDVNSWCRRARAKAASAGKKASSAAAPHTVSYPDNLTYRDLYYFLFAPTLCYELNFPRSPRIRKRFLLRRILEMLFFTQLQVGLIQQWMVPTIQNSMKPFKDMDYSRIIERLLKLAVPNHLIWLIFFYWLFHSCLNAVAELMQFGDREFYRDWWNSESVTYFWQNWNIPVHKWCIRHFYKPMLRRGSSKWMARTGVFLASAFFHEYLVSVPLRMFRLWAFTGMMAQIPLAWFVGRFFQGNYGNAAVWLSLIIGQPIAVLMYVHDYYVLNYEAPAAEA
stoichiometry N: 2 and 4
